For one series, the system named is HEK-Blue cells. The series can be described thus: CellTiterGlo cell viability / cellular cytotoxicity assay. The format is cell-based, human. On the technique in general: ATP-based viability assays read luminescence as a measure of living cells.
The target in series [1] is T1, IL-1RAcP/ST2/IL-33 ternary complex (Homo sapiens, UniProt O95760+Q01638).
T1 construct: included the extracellular domains, K19-F328 and S21-E359, respectively; the cleaved mature proteins, S112-T270, A117-S269, and R2-S310, respectively; purchased Sino Biologicals ST2 10105-HCCH; IL1RAcP 10121-H08H; IL-33 10368-HNAE; host or cells: ST2 and IL1RAcP: HEK293; IL-33: E. coli
T1 sequence (Q01638 19-328 isoform Q01638-2): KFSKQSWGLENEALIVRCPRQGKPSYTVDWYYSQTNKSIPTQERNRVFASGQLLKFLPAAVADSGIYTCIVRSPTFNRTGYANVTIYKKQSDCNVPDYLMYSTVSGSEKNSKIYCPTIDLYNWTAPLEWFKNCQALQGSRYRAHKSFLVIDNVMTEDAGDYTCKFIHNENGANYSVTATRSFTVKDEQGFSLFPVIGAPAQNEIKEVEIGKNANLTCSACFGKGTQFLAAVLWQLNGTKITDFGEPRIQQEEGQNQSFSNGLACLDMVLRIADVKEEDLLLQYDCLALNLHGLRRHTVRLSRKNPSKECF
T1 sequence (O95760 112-270): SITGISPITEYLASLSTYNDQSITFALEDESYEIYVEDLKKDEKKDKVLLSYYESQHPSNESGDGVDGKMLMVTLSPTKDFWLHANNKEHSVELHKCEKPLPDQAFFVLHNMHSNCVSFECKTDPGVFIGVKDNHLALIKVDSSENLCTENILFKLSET
Nature of the series: Crosslinking assay of ternary complex (trimer) formation with recombinant IL-33, ST2 and IL-1RAcP. The series is classed as biochemical. The protocol: MSTOP dose curves were performed with a crosslinking assay. Recombinant IL-33, ST2, and IL-1RAcP were combined as described above and incubated at RT for 30 m in PBS or treated with 10 μM of 3WJ scaffold, WT peptides, or MSTOP in a dose range of 10 μM to 1 nM (1:10 serial dilution). Following incubation, 1 μL of 2.5 mM Disuccinimidyl suberate (DSS, 83 μM) homobifunctional crosslinker was added and reactions were incubated for […] at RT., then quenched with 1 μL of 1 M Tris-HCl. Samples were then prepared for electrophoresis.
The native receptor has a KD value of 10 μM illustrative of the fact that the interaction is weak and transient (FIG. 3A). […] The prototype MSTOP was finally assessed for bioactivity via prevention of IL-33/ST2 signaling activation. The MSTOP was first tested in vitro with recombinant ST2, IL-33, and IL-1RAcP incubated together in its endogenous 1:1:1 stoichiometry for 30 minutes. Reactions were then treated with DSS homobifunctional NETS-based crosslinker (final concentration ˜85 μM) to tether formed trimers. Trimer resolved at the predicted 120 kDa in semi-native conditions, while unbound IL-1RAcP resolved at 50 kDa. Quantification of IL-1RAcP at 120 kDa was normalized against total lane IL-1RAcP input, with the untreated trimer control representing 100% trimerization. […]

Bridges are numbered along the chain shown (N, C = ends). Roman numbers before positions name the chains, in order.

Take “MSTOP: 3WJ DNA scaffold whose three DBCO staple strands carry cyclized azidolysine IL-1RAcP hotspot peptides; decoy for IL-33/ST2 (peptide 1 Ac-CKEYGIQRITC-NH2; peptide 2 Ac-AKVGSPKNAVPPC-NH2; peptide 3 Ac-CKGEVAKAAKVKC-NH2; disulfide I:1-I:11, III:1-III:13; thioether II:1-II:13; not fully specified (some residues); also: three peptides held on a 3-way junction DNA scaffold via DBCO staple strands)”: the cell viability entry in the series on HEK-Blue cells (10 μM, CellTiterGlo) is “did not decrease cell viability”. Besides, in the series with HEK-Blue cells (FIG. 4F, concentrations in μM), the cellular cytotoxicity entry is given as “not toxic”. Besides, the “reduction of trimer formation” value in series [1] (1 μM treatment) is recorded as “approximately 40%”. Further, the “reduction in trimer formation” value in series [1] (10 μM treatment, DSS crosslinking western blot) was determined as 70%.

The values are drawn from US20240084044A1, “Heteromultivalent Nucleic Acid Scaffolds and Uses Thereof” (George Mason University, priority 2022, published 2024).
